Broadly, the Kd is the constant that tells how readily two partners part at equilibrium. The koff is the first-order rate constant of dissociation. By kon is commonly meant the second-order rate constant of association. A higher kon goes with fast association.

Data on 19 molecules can be found in patent US20250376519A1 (JIANGSU HENGRUI PHARMACEUTICALS, published 2025).

Sequences and labels used below:
T1: human DLL3 (ACRO, DLL3-H52H4) (human, UniProt Q9NYJ7 27-492)
T1 construct: Bought
T1 sequence: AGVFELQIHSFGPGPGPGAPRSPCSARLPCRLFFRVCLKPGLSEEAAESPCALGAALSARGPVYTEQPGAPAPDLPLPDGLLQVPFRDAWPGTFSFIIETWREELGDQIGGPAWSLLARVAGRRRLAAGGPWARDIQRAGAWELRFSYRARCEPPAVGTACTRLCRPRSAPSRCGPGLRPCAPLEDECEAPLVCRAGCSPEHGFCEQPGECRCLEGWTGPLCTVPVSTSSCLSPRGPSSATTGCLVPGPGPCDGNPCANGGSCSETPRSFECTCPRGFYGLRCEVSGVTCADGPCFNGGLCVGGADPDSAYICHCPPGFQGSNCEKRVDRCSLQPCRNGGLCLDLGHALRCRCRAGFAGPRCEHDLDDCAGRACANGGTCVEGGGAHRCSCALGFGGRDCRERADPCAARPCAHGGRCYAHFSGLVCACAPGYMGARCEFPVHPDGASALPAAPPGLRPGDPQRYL

B1: M6CH1 (antibody, human IgG1, kappa, V domains shown)
VH: EVQLQQSGPVLVKPGASVKMSCKASGYTFTDYYMNWVKQSHGKSLEWIGIINPYSGVTIYNHKFKGKATLTVDKSSNTAYMELNSLTSEDSAVYYCARQDSLLDYAMDYWGQGTSVTVSS
VL: DILMTQSPSSMSVSLGDTVSITCHASQGISGNMGWLQQKPGKSFKGLIYHGANLEDGVPSRFSGSGSGADYSLTISSLESEDFADYYCVQYAQFPYTFGGGTKLEIKR
notes: chimeric antibody of mAb6, human IgG1/kappa; also called M6CHI
B2: hu6L1H1 (antibody, human IgG1, kappa, V domains shown)
VH: EVQLVQSGAEVKKPGASVKVSCKASGYTFTDYYMNWVRQAPGQRLEWMGIINPYSGVTIYNHKFKGRVTITVDKSASTAYMELSSLRSEDTAVYYCARQDSLLDYAMDYWGQGTTVTVSS
VL: DIQMTQSPSSLSASVGDRVTITCHASQGISGNMGWLQQKPGKAPKGLIYHGANLEDGVPSRFSGSGSGTDFTLTISSLQPEDFATYYCVQYAQFPYTFGGGTKVEIKR
B3: hu6L4H6 (antibody, human IgG1, kappa, V domains shown)
VH: EVQLVQSGSELKKPGASVKVSCKASGYTFTDYYMNWVRQAPGQGLEWMGIINPYSGVTIYNHKFKGRFVLSVDKSSNTAYLQISSLKAEDTAVYYCARQDSLLDYAMDYWGQGTTVTVSS
VL: B2 VL with T69A, F71Y, T85D
B4: hu6L1H3 (antibody, human IgG1, kappa, V domains shown)
VH: B2 VH with M48I, V68A, I70L, S77N
VL: B2 VL
B5: hu6L3H3 (antibody, human IgG1, kappa, V domains shown)
VH: B2 VH with M48I, V68A, I70L, S77N
VL: B2 VL with A43S, P44F, T69A, F71Y
B6: hu6L2H3 (antibody, human IgG1, kappa, V domains shown)
VH: B2 VH with M48I, V68A, I70L, S77N
VL: B2 VL with T69A, F71Y
B7: hu6L2H1 (antibody, human IgG1, kappa, V domains shown)
VH: B2 VH
VL: B2 VL with T69A, F71Y
B8: hu6L3H1 (antibody, human IgG1, kappa, V domains shown)
VH: B2 VH
VL: B2 VL with A43S, P44F, T69A, F71Y
B9: hu6L3H2 (antibody, human IgG1, kappa, V domains shown)
VH: B2 VH with I70L, S77N
VL: B2 VL with A43S, P44F, T69A, F71Y
B10: hu6L1H2 (antibody, human IgG1, kappa, V domains shown)
VH: B2 VH with I70L, S77N
VL: B2 VL
B11: hu30L4H10 (antibody, human IgG1, kappa, V domains shown)
VH: EVRLVQSGAEVKKPGASVKVSCKASGYTFTDYYMNWVRQSHGQSLEWMGIINPYTGDTSYNQKFRGRVTLTVDKSASTAYMELSSLRSEDTAVYYCARYHYGPHLEGYFDVWGQGTTVTVSS
VL: DIQMTQSPSSLSASVGDRVTITCKASENVGYVSWYQQKPGKAPKLLIYGASNRYTGVPSRFSGSGSGTDFTLTISSLQPEDFATYYCGQSYSYPLTFGQGTKLEIKR
B12: hu30L5H11 (antibody, human IgG1, kappa, V domains shown)
VH: B11 VH with S7F, E10V, S40A, H41P, A76S, R87T
VL: B11 VL with A42S, S59D, Q99S
B13: hu30L5H8 (antibody, human IgG1, kappa, V domains shown)
VH: B11 VH with S7F, E10V, S40A, H41P, A76S
VL: B11 VL with A42S, S59D, Q99S
B14: hu30L5H10 (antibody, human IgG1, kappa, V domains shown)
VH: B11 VH
VL: B11 VL with A42S, S59D, Q99S
B15: hu30L1H7 (antibody, human IgG1, kappa)
heavy: not shown
light: DIVMTQSPDSLAVSLGERATINCKASENVGYVSWYQQKPGQPPKLLIYGASNRYTGVPDRFSGSGSGTDFTLTISSLQAEDVAVYYCGQSYSYPLTFGQGTKLEIKRTVAAPSVFIFPPSDEQLKSGTASVVCLLNNFYPREAKVQWKVDNALQSGNSQESVTEQDSKDSTYSLSSTLTLSKADYEKHKVYACEVTHQGLSSPVTKSFNRGEC
B16: hu30L1H9 (antibody, human IgG1, kappa, V domains shown)
VH: B11 VH with S40A, H41P, M48I, V68A
VL: DIVMTQSPDSLAVSLGERATINCKASENVGYVSWYQQKPGQPPKLLIYGASNRYTGVPDRFSGSGSGTDFTLTISSLQAEDVAVYYCGQSYSYPLTFGQGTKLEIKR
B17: hu30L1H11 (antibody, human IgG1, kappa, V domains shown)
VH: B11 VH with S7F, E10V, S40A, H41P, A76S, R87T
VL: B16 VL
B18: M98CH1 (antibody, human IgG1, kappa, V domains shown)
VH: EVQLVESGGGLVKPGGSLKLSCAASGFTFSDYGIHWVRQAPEKGLEWVAYISSGGYTIYYADTVKGRFTISRDNAKNTLFLQMTSLRSEDTAMYYCARGDYDDIFYTMDYWGQGTSVTVSS
VL: DIQMTQTTSSLSASLGDRVTISCRASRDITKFLNWYQQKPDGTVKLLIYYTSRLHSGVPSRFSGSGSGTDYSLTISNLDQEDIATYFCQQGNTLPWTFGGGTKLDIKR
notes: chimeric antibody of mAb98, human IgG1/kappa; also called M98CHI
B19: hu98L1H2 (antibody, human IgG1, kappa, V domains shown)
VH: B18 VH with K13Q, K19R, E42G, T78S, F80Y, T84N, S88A, M93V, D102E, S116T
VL: DIQMTQSPSSLSASVGDRVTITCRASRDITKFLNWYQQKPGKAPKLLIYYTSRLHSGVPSRFSGSGSGTDFTLTISSLQPEDFATYYCQQGNTLPWTFGGGTKVEIKR

Substitutions are numbered along the chain they refer to.

In this assay the target is T1, human DLL3 (ACRO, DLL3-H52H4). Briefly: SPR Biacore 8K, Ab captured on Protein A. An excerpt: Test antibodies were affinity-captured with a Protein A biosensor chip (Cat. #29127556, Cytiva) for 18 seconds, and then the antigens human DLL3 (ACRO, DLL3-H52H4), cynomolgus monkey DLL3 (KACTUS, DLL-RM103), mouse DLL3 (KACTUS, DLL-MM103), human CD3D&3E (ACRO, CDD-H52W1), and monkey CD3D&3E (ACRO, CDD-C52W4) were allowed to flow through the surface of the chip for 180 seconds, followed by 600 seconds of dissociation. Reaction signals were detected in real time using a Biacore 8K (Cytiva) instrument to obtain association and dissociation curves. After the dissociation in each experimental cycle, the chip was washed and regenerated with a 10 mM glycine-hydrochloric acid solution (pH 1.5, Cat. #BR-1003-54, Cytiva). Data fitting was performed using a 1:1 Model.
A general note: SPR reads the build-up and loss of mass on a sensor chip optically.
For B1, the Kd is 0.681 nM, the dissociation rate constant (koff) came to 0.000657 s⁻¹ and the kon worked out at 965000 M⁻¹ s⁻¹.
On the same counts, the results for B2 are 2.81 nM, 0.00225 s⁻¹ and 798000 M⁻¹ s⁻¹.
As to B3, binding was put at a Kd of 0.424 nM, the koff came out at 0.000811 s⁻¹ and the kon amounted to 1.91e+06 M⁻¹ s⁻¹.
Turning to B4, binding was put at a Kd of 2.76 nM, the koff came out at 0.00224 s⁻¹ and the association rate constant (kon) amounted to 812000 M⁻¹ s⁻¹.
In the same order, the values of B5 are 1.88 nM, 0.00135 s⁻¹ and 718000 M⁻¹ s⁻¹.
As to B6, binding was put at a Kd of 2.01 nM, the off-rate (koff) is 0.00139 s⁻¹ and the on-rate constant (kon) turned out to be 695000 M⁻¹ s⁻¹.
B7 returned a Kd of 2.19 nM, a koff of 0.00155 s⁻¹ and a kon of 709000 M⁻¹ s⁻¹.
The molecule B8 registered an equilibrium dissociation constant (Kd) of 2.02 nM, a koff of 0.00144 s⁻¹ and a kon of 715000 M⁻¹ s⁻¹.
B9 yielded a Kd of 1.59 nM, a koff of 0.00114 s⁻¹ and a kon of 716000 M⁻¹ s⁻¹.
On the same counts, the results for B10 are 2.19 nM, 0.00173 s⁻¹ and 787000 M⁻¹ s⁻¹.
In turn, B11 came in with an equilibrium dissociation constant (Kd) of 2.16 nM, a koff of 0.000919 s⁻¹ and an association rate constant (kon) of 427000 M⁻¹ s⁻¹.
B12 displayed a dissociation constant Kd of 3.06 nM, a dissociation rate constant (koff) of 0.0012 s⁻¹ and a kon of 391000 M⁻¹ s⁻¹.
The molecule B13 showed a Kd of 2.54 nM, a koff of 0.00102 s⁻¹ and a kon of 400000 M⁻¹ s⁻¹.
B14 registered a dissociation constant Kd of 2.05 nM, a koff of 0.000949 s⁻¹ and an on-rate constant (kon) of 464000 M⁻¹ s⁻¹.
For B15, the equilibrium dissociation constant (Kd) was determined as 1.16 nM, the dissociation rate constant (koff) is 0.00115 s⁻¹ and the association rate constant (kon) came to 985000 M⁻¹ s⁻¹.
As to B16, binding was put at a Kd of 2.34 nM, the koff was 0.000981 s⁻¹ and the association rate constant (kon) came to 419000 M⁻¹ s⁻¹.
Molecule B17 gave a Kd of 2.83 nM, an off-rate (koff) of 0.00117 s⁻¹ and a kon of 414000 M⁻¹ s⁻¹.
In the same order, the values of B18 are 0.429 nM, 0.000682 s⁻¹ and 1.59e+06 M⁻¹ s⁻¹.
Consider B19, for which binding was characterised by a dissociation constant (Kd) of 1.97 nM, the off-rate (koff) came to 0.00307 s⁻¹ and the kon was 1.56e+06 M⁻¹ s⁻¹.
